Measurements as given in the supplement of paper PMC10567573.

B1: SPSB4 (parent)
chain: LDMDEGTLSFIVDGQYLGVAFRGL
B2: KCNAB2 (parent)
chain: IPPYSRASLKGYQWLKDKILSEEG

Variants of: B1
Assay: protein stability index of a GFP-peptide fusion (GPS, HEK-293T) (PSI 1-6); higher = more stable
Details: c terminus: a fixed tail appended
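Also: lentivirally expressed fusions sorted by FACS into six bins by GFP to DsRed ratio, PSI derived from sequencing read proportions per bin multiplied by bin number.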

Protein stability index, by site and new letter:
L24: N 2.19 | P 2.78 | Q 2.6 | R 2.11 | S 1.88 | T 2.67 | V 3.18 | W 2.54 | Y 2.76

Variants of: B2
Assay: as above
Details: c terminus: a fixed tail appended

Protein stability index of substitutions, site by site:
I1: A 2.6 | C 2.43 | D 3.51 | E 3.38 | F 2.15 | G 2.19 | H 2.59 | K 2.33 | L 2.08 | M 2.19 | N 2.5 | P 2.82 | S 3.37 | T 2.99 | V 2.77
P2: A 1.52 | C 1.88 | D 1.7 | E 2.87 | F 2.2 | H 1.92 | I 1.25 | K 2.02 | L 2.04 | M 1.37 | N 1.86 | Q 2.92 | R 2.62 | S 2.66 | T 1.62 | V 3.44 | Y 2.56
P3: A 2.27 | C 1.51 | D 3.1 | E 2.5 | F 2.85 | G 1.78 | H 1.74 | I 2.28 | K 2.75 | L 3.1 | N 2.48 | Q 2.54 | R 3.2 | S 2.62 | T 2.06 | V 2.3 | Y 2.53
Y4: A 2.77 | C 1.6 | D 4.41 | E 4.16 | F 2.14 | G 2.76 | I 2.29 | K 2.77 | L 1.34 | M 1.83 | N 3.1 | Q 2.96 | R 2.35 | S 2.92 | T 2.33 | V 2.49 | W 1.12
S5: A 2.15 | D 2.8 | E 3.09 | F 3.12 | G 3.42 | H 2.63 | K 2 | N 2.21 | P 3.12 | Q 2.45 | R 1.82 | T 2.42 | Y 2.79
R6: A 2.82 | C 1.94 | E 3.93 | F 2.16 | G 2.53 | H 2.2 | I 2.06 | K 2.56 | L 2.45 | M 1.95 | N 2.74 | P 2.67 | Q 3.23 | S 3.06 | T 2.59 | V 1.7 | Y 1.6
A7: C 1.59 | D 3.15 | E 2.86 | F 2.23 | G 2.58 | I 1.93 | K 1.9 | L 3.23 | M 1.8 | N 2.22 | P 2.45 | Q 2.58 | R 1.95 | S 3.32 | T 2.23 | V 2.41 | Y 1.46
S8: A 2.6 | D 2.53 | E 1.31 | F 2.21 | G 1.96 | H 2.97 | I 1.58 | N 2.53 | P 2.64 | Q 2.72 | T 2.24 | Y 1.9
L9: A 2.56 | C 1.77 | D 2.44 | E 3.2 | F 2.61 | G 3.22 | H 2.38 | I 2.56 | K 2.53 | M 2.24 | N 3.15 | P 3.25 | Q 2.28 | R 3.33 | S 3.84 | T 3.14 | W 2.22 | Y 2.4
K10: A 2.47 | C 1.72 | D 3.49 | E 3.57 | F 1.67 | G 2.88 | H 2.91 | I 2.2 | L 2.37 | M 2.4 | N 2.42 | P 3.76 | Q 3.27 | R 1.68 | S 3.34
